{
  "source": "paper doi:10.1101/826115",
  "biological_target": "Respiratory complex I (mouse (endogenous in mouse tissues and L929 cells)) (UniProt Q9DC69)",
  "sequence (Q9DC69 whole entry, looked up, one chain of several)": "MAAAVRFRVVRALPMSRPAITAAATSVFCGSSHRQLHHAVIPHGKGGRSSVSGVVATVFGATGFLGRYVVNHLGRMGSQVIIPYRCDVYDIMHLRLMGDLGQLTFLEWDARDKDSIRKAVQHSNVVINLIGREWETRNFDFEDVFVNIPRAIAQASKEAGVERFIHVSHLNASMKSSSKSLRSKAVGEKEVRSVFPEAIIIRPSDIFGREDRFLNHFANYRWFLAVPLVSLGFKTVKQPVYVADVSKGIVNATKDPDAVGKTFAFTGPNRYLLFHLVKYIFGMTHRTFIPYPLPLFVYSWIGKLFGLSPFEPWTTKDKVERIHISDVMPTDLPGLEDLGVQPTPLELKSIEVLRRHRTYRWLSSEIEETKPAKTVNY",
  "test": "Blue-DiS complexome profiling",
  "data": [
    {"substance": "Respiratory complex IV (from UniProt P00397 1-514)", "values": [
      {"measurement": "stoichiometry N", "result": "1 CI:CIV"}
    ]},
    {"substance": "Respiratory complex III dimer (from UniProt Q9DB77 15-453)", "values": [
      {"measurement": "stoichiometry N", "result": "2 CIII:CI"}
    ]}
  ]
}
